Measured values taken from US20260201020A1, “METHODS FOR EXPRESSION OF FUSION-FREE BOVINE ULTRALONG CDR3 SCAFFOLD” (priority 2022, published 2026).
Read-outs that look alike come from different tables or passages of the source.

Columns and labels:
[1] = molecular target: SARS-CoV-2 Spike RBD (SARS-CoV-2), P0DTC2
[2] = molecular target: SARS-CoV-2 Spike RBD (SARS-CoV-2), P0DTC2; remark: listed apart in the source
[3] = molecular target: SARS-CoV-2 Spike RBD (SARS-CoV-2), P0DTC2; remark: listed apart in the source
[4] = molecular target: SARS-CoV-2 Spike RBD (SARS-CoV-2), P0DTC2; remark: listed apart in the source
[5] = molecular target: SARS-CoV-2 Spike RBD (SARS-CoV-2), P0DTC2; remark: listed apart in the source
[6] = molecular target: SARS-CoV-2 Spike RBD (SARS-CoV-2), P0DTC2; remark: listed apart in the source
[7] = molecular target: SARS-CoV-2 Spike RBD (SARS-CoV-2), P0DTC2; remark: listed apart in the source
[8] = molecular target: SARS-CoV-2 Spike RBD (SARS-CoV-2), P0DTC2; remark: listed apart in the source
[9] = molecular target: SARS-CoV-2 Spike RBD (SARS-CoV-2), P0DTC2; remark: listed apart in the source
[10] = molecular target: SARS-CoV-2 Spike RBD (SARS-CoV-2), P0DTC2; remark: listed apart in the source
[11] = molecular target: SARS-CoV-2 Spike RBD (SARS-CoV-2), P0DTC2; remark: listed apart in the source
[12] = molecular target: SARS-CoV-2 Spike RBD (SARS-CoV-2), P0DTC2; remark: listed apart in the source
[13] = molecular target: SARS-CoV-2 Spike RBD (SARS-CoV-2), P0DTC2; remark: listed apart in the source
[14] = molecular target: SARS-CoV-2 Spike RBD (SARS-CoV-2), P0DTC2; remark: listed apart in the source
[15] = molecular target: SARS-CoV-2 Spike RBD (SARS-CoV-2), P0DTC2; remark: listed apart in the source
[16] = molecular target: SARS-CoV-2 Spike RBD (SARS-CoV-2), P0DTC2; remark: listed apart in the source
[17] = molecular target: SARS-CoV-2 Spike RBD (SARS-CoV-2), P0DTC2; remark: listed apart in the source
[18] = molecular target: SARS-CoV-2 Spike RBD (SARS-CoV-2), P0DTC2; remark: listed apart in the source
[19] = molecular target: SARS-CoV-2 Spike RBD (SARS-CoV-2), P0DTC2; remark: listed apart in the source
[20] = molecular target: SARS-CoV-2 Spike RBD (SARS-CoV-2), P0DTC2; remark: listed apart in the source
[21] = molecular target: SARS-CoV-2 Spike RBD (SARS-CoV-2), P0DTC2; remark: listed apart in the source
[22] = molecular target: SARS-CoV-2 Spike RBD (SARS-CoV-2), P0DTC2; remark: listed apart in the source
[23] = molecular target: SARS-CoV-2 Spike RBD (SARS-CoV-2), P0DTC2; remark: listed apart in the source
[24] = molecular target: SARS-CoV-2 Spike RBD (SARS-CoV-2), P0DTC2; remark: listed apart in the source
[25] = molecular target: SARS-CoV-2 Spike RBD (SARS-CoV-2), P0DTC2; remark: listed apart in the source
[26] = molecular target: SARS-CoV-2 Spike RBD (SARS-CoV-2), P0DTC2; remark: listed apart in the source
[27] = molecular target: SARS-CoV-2 Spike RBD (SARS-CoV-2), P0DTC2; remark: listed apart in the source

Adjusted Binding Rate [1]: 2.44 nm/s
Adjusted Binding Rate [2]: 7.3 nm/s
Adjusted Binding Rate [3]: 2.88 nm/s
Adjusted Binding Rate [4]: 7.41 nm/s
Adjusted Binding Rate [5]: 34.6 nm/s
Adjusted Binding Rate [6]: 9.51 nm/s
Adjusted Binding Rate [7]: 2.12 nm/s
Adjusted Binding Rate [8]: 7.1 nm/s
Adjusted Binding Rate [9]: 5.39 nm/s
Adjusted Binding Rate [10]: 4.3 nm/s
Adjusted Binding Rate [11]: 5.5 nm/s
Adjusted Binding Rate [12]: 5.39 nm/s
Adjusted Binding Rate [13]: 4.4 nm/s
Adjusted Binding Rate [14]: 2.1 nm/s
Adjusted Binding Rate [15]: 4.91 nm/s
Adjusted Binding Rate [16]: 6.42 nm/s
Adjusted Binding Rate [17]: 12.5 nm/s
Adjusted Binding Rate [18]: 7.24 nm/s
Adjusted Binding Rate [19]: 34 nm/s
Adjusted Binding Rate [20]: 6.36 nm/s
Adjusted Binding Rate [21]: 8.31 nm/s
Adjusted Binding Rate [22]: 22 nm/s
Adjusted Binding Rate [23]: 7.34 nm/s
Adjusted Binding Rate [24]: 32.8 nm/s
Adjusted Binding Rate [25]: 1.5 nm/s
Adjusted Binding Rate [26]: 3.73 nm/s
Adjusted Binding Rate [27]: 3.39 nm/s
B1: R2G3-His (peptide)
chain: GGGGAMGSEGDKTCPDGYEHTCGCIGGCGCKRSACIGALCCQASLGGWLSDGETYTGGGGSGGGGSHHHHHH
modifications: not checked
